Here are results for 43 variants from the RNAGym collection of RNA variant scans (doi:10.7554/elife.80360).

The chains are these.
B1: Hairpin Ribozyme (parent)
chain: GUCCUCUUUCACGUGCGCGUGAAAGAGAGAAGUGAACCAGAGAAACACACGUUGUGGUAUAUUACCUGGUA
B2: Hammerhead Ribozyme (parent)
chain: ACCGGAUGUGCUUUCCGGUCUGAUGAGUCCGUGAGGACGAAACAG

In one data set the parent is B1. The experiment in a line: self-cleavage, relative activity (ratio to wild type); higher = more cleavage; co-transcriptional.
In the case of AUCCUCUUUCACGUGCGCGUGAAAGAGAGAAGUGAACCAGAGAAACACACGUUGUGGUAUAUUACGUGGUA [G1A C66G], the self-cleavage was determined as 0.225.
Regarding AUCCUCUUUCACGUGCGCGUGAAAGAGAGAAGUGAAUCAGAGAAACACACGUUGUGGUAUAUUACCUGGUA [G1A C37U], the self-cleavage was 0.196.
As to AUCCUCUUUCACGUGCGCGUGAAAGAGAGAAGUGAACCAGAGAAACACACGUUGUGAUAUAUUACCUGGUA [G1A G57A], the self-cleavage was 0.177.
The same measure, in the same setting: the figure for AUCCUCUUUCACGUGCGCGUGAAAGAGAGAAGUGAACCAGAGAAACACACGUUGUGUUAUAUUACCUGGUA [G1A G57U] is 0.179.
The same measure, in the same setting: to CUCCUCUUUCACGUGCGCGUGAAGGAGAGAAGUGAACCAGAGAAACACACGUUGUGGUAUAUUACCUGGUA [G1C A24G] belongs 0.129; to AUCCUCUUUCACGUGCGCGUGAAAGAGAGAAAUGAACCAGAGAAACACACGUUGUGGUAUAUUACCUGGUA [G1A G32A], 0.196; to AUCCUCUUUCACGUGCGCGUGAAAGAGAGAAUUGAACCAGAGAAACACACGUUGUGGUAUAUUACCUGGUA [G1A G32U], 0.184.
In the case of AUCCUCUUUCACGUGCGCGUGAAAGAGAGAAGUGAACCAGAGAAAGACACGUUGUGGUAUAUUACCUGGUA [G1A C46G], the self-cleavage was 0.104.
The same measure, in the same setting: to AUCCUCUUUCACGUGCGCGUGAAAGAGAGAAGUGAACCAGAGAAACACACAUUGUGGUAUAUUACCUGGUA [G1A G51A] belongs 0.21; to AUCCUCUUUCACGUGCGCGUGAAAGAGAGAAGUGAACCAGAGAAACACACGUUGUGGUAUAUCACCUGGUA [G1A U63C], 0.166; to AUCCUCUUUCACGUGCGCGUGAAAGAGAGAAGUGAACCAGAGAAACACAAGUUGUGGUAUAUUACCUGGUA [G1A C50A], 0.127.
As to AUCCUCUUUCACGUGCGCGUGAAAGAGAGAAGUGAACCAGAGAAACACAGGUUGUGGUAUAUUACCUGGUA [G1A C50G], the self-cleavage was 0.277.
Take AUCCUAUUUCACGUGCGCGUGAAAGAGAGAAGUGAACCAGAGAAACACACGUUGUGGUAUAUUACCUGGUA [G1A C6A]: the self-cleavage was 0.197.
The same measure, in the same setting: the figure for AUCCCCUUUCACGUGCGCGUGAAAGAGAGAAGUGAACCAGAGAAACACACGUUGUGGUAUAUUACCUGGUA [G1A U5C] is 0.269.
Take AUCCUCUUUCACGUCCGCGUGAAAGAGAGAAGUGAACCAGAGAAACACACGUUGUGGUAUAUUACCUGGUA [G1A G15C]: the self-cleavage was found to be 0.287.

Another data set covers variants of B2. The data set is described as above.
Regarding ACCGGAUGUGCUUUCCGGUCUGAUGAGUCCGUGAGGACGAAAGGG [C43G A44G], the self-cleavage came out at 0.934.
On the same count and under the same terms, the figure for ACCGGAUGUGCUUUCCGGUCUGAUGAGUCCGUGAGGACGAAAGCG [C43G A44C] is 0.464; for ACCGGAUGUGCUUUCCGGUCUGAUGAGUCCGUGAGGACGAAAGUG [C43G A44U] it is 0.359.
For ACCGGAUGUGCUUUCCGGUCUGAUGAGUCCGUGAGGACGAAAUAU [C43U G45U], the self-cleavage worked out at 0.423.
Take ACCGGAUGUGCUUUCCGGUCUGAUGAGUCCGUGAGGACGAAAUAA [C43U G45A]: the self-cleavage is 0.419.
As for ACCGGAUGUGCUUUCCGGUCUGAUGAGUCCGUGAGGACGAAAUAC [C43U G45C], the self-cleavage was 0.451.
Consider ACCGGAUGUGCUUUCCGGUCUGAUGAGUCCGUGAGGACGAAACUU [A44U G45U], for which the self-cleavage came out at 1.91.
With ACCGGAUGUGCUUUCCGGUCUGAUGAGUCCGUGAGGACGAAACUC [A44U G45C], the self-cleavage came to 1.86.
The same measure, in the same setting: to ACCGGAUGUGCUUUCCGGUCUGAUGAGUCCGUGAGGACGAAACUA [A44U G45A] belongs 0.607; to ACCGGAUGUGCUUUCCGGUCUGAUGAGUCCGUGAGGACGAAAUAG [C43U], 0.608.
Same read-out and setting: the figure for ACCGGAUGUGCUUUCCGGUCUGAUGAGUCCGUGAGGACGAAACCA [A44C G45A] is 0.932; for ACCGGAUGUGCUUUCCGGUCUGAUGAGUCCGUGAGGACGAAACCC [A44C G45C] it is 1.14; for ACCGGAUGUGCUUUCCGGUCUGAUGAGUCCGUGAGGACGAAACCU [A44C G45U] it is 0.721.
ACCGGAUGUGCUUUCCGGUCUGAUGAGUCCGUGAGGACGAAAUCG [C43U A44C]: the self-cleavage came out at 1.93.
As for ACCGGAUGUGCUUUCCGGUCUGAUGAGUCCGUGAGGACGAAAUGG [C43U A44G], the self-cleavage was 0.586.
As for ACCGGAUGUGCUUUCCGGUCUGAUGAGUCCGUGAGGACGAAAUUG [C43U A44U], the self-cleavage is 0.346.
ACCGGAUGUGCUUUCCGGUCUGAUGAGUCCGUGAGGACGAAAGAU [C43G G45U]: the self-cleavage is 0.835.
Take ACCGGAUGUGCUUUCCGGUCUGAUGAGUCCGUGAGGACGAAAGAA [C43G G45A]: the self-cleavage is 0.327.
On to ACCGGAUGUGCUUUCCGGUCUGAUGAGUCCGUGAGGACGAAAGAC [C43G G45C], for which the self-cleavage was determined as 0.378.
Regarding ACCGGAUGUGCUUUCCGGUCUGAUGAGUCCGUGAGGACGAAACGC [A44G G45C], the self-cleavage was determined as 2.15.
With ACCGGAUGUGCUUUCCGGUCUGAUGAGUCCGUGAGGACGAAACGA [A44G G45A], the self-cleavage was 1.25.
With ACCGGAUGUGCUUUCCGGUCUGAUGAGUCCGUGAGGACGAAACGU [A44G G45U], the self-cleavage is 1.93.
Same read-out and setting: the figure for ACCGGAUGUGCUUUCCGGUCUGAUGAGUCCGUGAGGACGAAACAU [G45U] is 0.898; for ACCGGAUGUGCUUUCCGGUCUGAUGAGUCCGUGAGGACGAAACAA [G45A] it is 0.842; for ACCGGAUGUGCUUUCCGGUCUGAUGAGUCCGUGAGGACGAAACAC [G45C] it is 0.844.
Regarding ACCGGAUGUGCUUUCCGGUCUGAUGAGUCCGUGAGGACGAAACUG [A44U], the self-cleavage came to 0.756.
As to ACCGGAUGUGCUUUCCGGUCUGAUGAGUCCGUGAGGACGAAACCG [A44C], the self-cleavage came out at 0.663.
Still for that read-out and setting: the figure for ACCGGAUGUGCUUUCCGGUCUGAUGAGUCCGUGAGGACGAAACGG [A44G] is 1.53.
